# Assay results from the supplement of paper PMC10567573.
# B1: SLC35F2 (parent)
# chain: SFMPLVIKVTSATSVNLGILTADL
# B2: MAGEA6 (parent)
# chain: KISGGPRISYPLLHEWALREGEE
# Variants of: B1
# Test: protein stability index of a GFP-peptide fusion (GPS, HEK-293T) (PSI 1-6); higher = more stable
# Details: c terminus: a fixed tail appended
# 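Note: lentivirally expressed fusions sorted by FACS into six bins by GFP to DsRed ratio, PSI derived from sequencing read proportions per bin multiplied by bin number.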
row,Variant,protein stability index
1,SFMPLVIKVTSATRVNLGILTADL,2.42
2,KFMPLVIKVTSATSVNLGILTADL,5.06
3,EFMPLVIKVTSATSVNLGILTADL,4.28
4,AFMPLVIKVTSATSVNLGILTADL,3.22
5,RFMPLVIKVTSATSVNLGILTADL,2.98
6,PFMPLVIKVTSATSVNLGILTADL,3.06
7,IFMPLVIKVTSATSVNLGILTADL,3.16
8,SFMPLHIKVTSATSVNLGILTADL,2.74
9,SFMPLTIKVTSATSVNLGILTADL,2.76
10,SFMPLMIKVTSATSVNLGILTADL,1.36
11,SFMPLEIKVTSATSVNLGILTADL,1.24
12,SFMPLCIKVTSATSVNLGILTADL,3.92
13,SFMPLKIKVTSATSVNLGILTADL,2.88
14,SFMPLGIKVTSATSVNLGILTADL,3.03
15,SFMPLQIKVTSATSVNLGILTADL,1.86
16,SFMPLVIKVTSATSVNLGPLTADL,2.37
17,SFMPLVIKVTSATSVNLGMLTADL,3.44
18,SFMPLVIKVTSATSVNLGTLTADL,2
19,SFMPLVIKVTSATSVNLGALTADL,3
20,SFMPLVIKVTSATSVNLGELTADL,2.08
21,SFMPLVIKVTSATSVNLGGLTADL,3.15
22,SFMPLVIKVTSATSVNLGFLTADL,3.09
23,SFMPLVIKVTSATSVNLGKLTADL,2.68

row,Variant,protein stability index
1,SFMPLVIKVTSATSVNLGLLTADL,2.54
2,SFMPLVIKVTSATSVNLGQLTADL,2.64
3,SFMPLVIKVTSATSVNLGILTHDL,3.34
4,SFMPLVIKVTSATSVNLGILTNDL,2.95
5,SFMPLVIKVTSATSVNLGILTVDL,3.18
6,SFMPLVIKVTSATSVNLGILTTDL,3.93
7,SFMPLVIKVTSATSVNLGILTDDL,2.67
8,SFMPLVIKVTSATSVNLGILTYDL,3.41
9,SFMPLVIQVTSATSVNLGILTADL,2.87
10,SFMPLVINVTSATSVNLGILTADL,3.01
11,SFMPLVIVVTSATSVNLGILTADL,3.52
12,SFMPLVISVTSATSVNLGILTADL,3.16
13,SFMPLVITVTSATSVNLGILTADL,3
14,SFMPLVIEVTSATSVNLGILTADL,3.06
15,SFMPLVIRVTSATSVNLGILTADL,3.26
16,SEMPLVIKVTSATSVNLGILTADL,2.65
17,SHMPLVIKVTSATSVNLGILTADL,1.71
18,SQMPLVIKVTSATSVNLGILTADL,3.56
19,SRMPLVIKVTSATSVNLGILTADL,2.01
20,SCMPLVIKVTSATSVNLGILTADL,2.58
21,SGMPLVIKVTSATSVNLGILTADL,3.11
22,SDMPLVIKVTSATSVNLGILTADL,2.12
23,SIMPLVIKVTSATSVNLGILTADL,3.41

row,Variant,protein stability index
1,SFMPLVIKVTSATSVNLGILTATL,3.29
2,SFMPLVIKVTSATSVNLGILTAVL,3.83
3,SFMPLVIKVTSATSVNLGILTAWL,2.49
4,SFMPLVIKVTSATSVNLGILTANL,3.05
5,SFMPLVIKVTSATSVNLGILTAAL,2.74
6,SFMPLVIKVTSATSVNLGILTAYL,3.03
7,SFMPLVIKVTSATSVNLGILTAFL,2.91
8,SFMPLVIKVTSATSVNLGILTAML,1.83
9,SFMPLVIKVTSATSVNLGILTASL,2.11
10,SFMPLVIKVTSATSVNLGILTAHL,3.1
11,SFMPLVIKVTSATSVNLGILTAQL,3.39
12,SFMPLVIKVTSATSVNLGILTAKL,1.8
13,SFMPLVIKVTSATSVNEGILTADL,2.24
14,SFMPLVIKVTSATSVNHGILTADL,2.92
15,SFMPLVIKVTSATSVNDGILTADL,2.04
16,SFMPLVIKVTSATSVNYGILTADL,2.6
17,SFMPLVIKVTSATSVNAGILTADL,2.48
18,SFMPLVIKVTSATSVNQGILTADL,3.52
19,SFMPLVIKVTSATSVNMGILTADL,3.87
20,SFMPLVIKVTSATSVNIGILTADL,2.77
21,SFMPLVIKVDSATSVNLGILTADL,3.46
22,SFMPLVIKVVSATSVNLGILTADL,3.4
23,SFMPLVIKVSSATSVNLGILTADL,2.65

row,Variant,protein stability index
1,SFMPLVIKVGSATSVNLGILTADL,3.08
2,SFMPLVIKVISATSVNLGILTADL,4.8
3,SFMPLVIKVNSATSVNLGILTADL,2.43
4,SFMPLVIKVPSATSVNLGILTADL,1.31
5,SFMHLVIKVTSATSVNLGILTADL,3.09
6,SFMVLVIKVTSATSVNLGILTADL,3.1
7,SFMMLVIKVTSATSVNLGILTADL,3.13
8,SFMFLVIKVTSATSVNLGILTADL,1.91
9,SFMALVIKVTSATSVNLGILTADL,2.68
10,SFMPLVIKVTSATSSNLGILTADL,3.78
11,SFMPLVIKVTSATSINLGILTADL,1.93
12,SFMPLVIKVTSATSDNLGILTADL,3.98
13,SFMPLVIKVTSATSRNLGILTADL,3.44
14,SFMPLVIKVTSATSNNLGILTADL,2.58
15,SFMPLVIKVTSATSTNLGILTADL,3.48
16,SFMPLVIKVTSATSPNLGILTADL,2.73
17,SFMPLVIKVTSATSKNLGILTADL,3.59
18,SFMPLVIKVTSATSVNLSILTADL,3.19
19,SFMPLVIKVTSATSVNLDILTADL,3.2
20,SFMPLVIKVTSATSVNLMILTADL,2.55
21,SFMPLVIKVTSATSVNLNILTADL,3.27
22,SFMPLVIKVTSATSVNLYILTADL,3.08
23,SFMPLVIKVTSATSVNLWILTADL,3.32

row,Variant,protein stability index
1,SFMPLVIKVTSATSVNLVILTADL,2.17
2,SFMPLVIKVTSATSVNLQILTADL,4.06
3,SFMPLVIKVTSATSVNLAILTADL,2.54
4,SFMPLVIKHTSATSVNLGILTADL,1.52
5,SFMPLVIKATSATSVNLGILTADL,2.07
6,SFMPLVIKPTSATSVNLGILTADL,1.7
7,SFMPLVIKRTSATSVNLGILTADL,1.81
8,SFMPLVIKITSATSVNLGILTADL,3.17
9,SFMPLVIKQTSATSVNLGILTADL,3.26
10,SFMPLVIKCTSATSVNLGILTADL,3.06
11,SFMPLVIKETSATSVNLGILTADL,1.58
12,SFMPLVIKSTSATSVNLGILTADL,1.56
13,SFMPLVIKVTSATSVNLGILTADE,2.21
14,SFMPLVIKVTSATSVNLGILTADW,1.78
15,SFMPLVIKVTSATSVNLGILTADT,2.24
16,SFMPLVIKVTSATSVNLGILTADQ,2.79
17,SFMPLVIKVTSATSVNLGILTADP,3.07
18,SFMPLVIKVTSATSVNLGILTADV,2.43
19,SFMPLVIKVTSATSVNLGILTADA,3.11
20,SFMPLVIKVTSATSVNLGILTADD,1.55
21,SFMPLVIKVTSATSVNLGILTADM,3.01
22,SFMPLVIKVTSATSVNLGILTADG,3.04
23,SFMPLVIKVTSATSVNLGILTADK,2.4

row,Variant,protein stability index
1,SFMPLVIKVTSARSVNLGILTADL,3.63
2,SFMPLVIKVTSAGSVNLGILTADL,2.38
3,SFMPLVIKVTSAHSVNLGILTADL,4
4,SFMPLVIKVTSASSVNLGILTADL,2.59
5,SFMPLVIKVTSAWSVNLGILTADL,2.75
6,SFMPLVIKVTSAMSVNLGILTADL,2.34
7,SFMPLVIKVTSANSVNLGILTADL,2.55
8,SFMPLVIKVTSADSVNLGILTADL,3.02
9,SFMPLVIKVTSAYSVNLGILTADL,3.88
10,SFMPLVIKVTSATSVILGILTADL,4.17
11,SFMPLVIKVTSATSVFLGILTADL,3.69
12,SFMPLVIKVTSATSVVLGILTADL,4.07
13,SFMPLVIKVTSATSVDLGILTADL,2.94
14,SFMPLVIKVTSATSVTLGILTADL,3.43
15,SFMPLVIKVTSATSVGLGILTADL,2.93
16,SFMPLVIKVTSATSVCLGILTADL,3.4
17,SFMPLVIKVTSATSVQLGILTADL,3.34
18,SFMPLVIKVTSATSVALGILTADL,2.18
19,SFMPLVIKVTSATSVLLGILTADL,3.94
20,SFMPLVIKVTSATSVHLGILTADL,2.74
21,SFMPLVIKVTSATSVELGILTADL,2.55
22,SFMPLVIKVTSATSVMLGILTADL,3.88
23,SFMPLVIKVTSWTSVNLGILTADL,1.91

row,Variant,protein stability index
1,SFMPLVIKVTSSTSVNLGILTADL,1.89
2,SFMPLVIKVTSYTSVNLGILTADL,1.73
3,SFMPLVIKVTSMTSVNLGILTADL,2.9
4,SFMPLVIKVTSTTSVNLGILTADL,2.89
5,SFMPLVIKVTSVTSVNLGILTADL,2.75
6,SFMPLVIKVTSPTSVNLGILTADL,1.22
7,SFMPLVIKVTSCTSVNLGILTADL,4.33
8,SFMPLVIKVTSRTSVNLGILTADL,2.75
9,SFMPLVIKVTSGTSVNLGILTADL,3.33
10,SFMPLVIKVTSLTSVNLGILTADL,3.32
11,SFMPLVIKVTSKTSVNLGILTADL,4.17
12,SFMPLVRKVTSATSVNLGILTADL,2.16
13,SFMPLVDKVTSATSVNLGILTADL,1.98
14,SFMPLVHKVTSATSVNLGILTADL,1.57
15,SFMPLVNKVTSATSVNLGILTADL,2.21
16,SFMPLVVKVTSATSVNLGILTADL,3.05
17,SFMPLVQKVTSATSVNLGILTADL,2.26
18,SFMPLVWKVTSATSVNLGILTADL,3.77
19,SFMPLVIKVTQATSVNLGILTADL,2.23
20,SFMPLVIKVTDATSVNLGILTADL,2.91
21,SFMPLVIKVTIATSVNLGILTADL,4.08
22,SFMPLVIKVTSATSVNLGILRADL,3.24
23,SFMPLVIKVTSATSVNLGILGADL,2.24

row,Variant,protein stability index
1,SFMPLVIKVTSATSVNLGILYADL,3.83
2,SFMPLVIKVTSATSVNLGILDADL,2.61
3,SFMPLVIKVTSATSVNLGILFADL,1.85
4,SFMPLVIKVTSATSVNLGILIADL,3.26
5,SFMPLVIKVTSATSVNLGIMTADL,2.92
6,SFMPLVIKVTSATSVNLGIETADL,2.87
7,SFMPLVIKVTSATSVNLGIATADL,3.33
8,SFMPLVIKVTSATSVNLGIFTADL,3.49
9,SFMPLVIKVTSATSVNLGIVTADL,3.65
10,SFLPLVIKVTSATSVNLGILTADL,2.73
11,SFTPLVIKVTSATSVNLGILTADL,2.79
12,SFGPLVIKVTSATSVNLGILTADL,3.41
13,SFSPLVIKVTSATSVNLGILTADL,3.76
14,SFVPLVIKVTSATSVNLGILTADL,2.06
15,SFYPLVIKVTSATSVNLGILTADL,1.96
16,SFMPGVIKVTSATSVNLGILTADL,1.68
17,SFMPSVIKVTSATSVNLGILTADL,1.47
18,SFMPWVIKVTSATSVNLGILTADL,2.75
19,SFMPVVIKVTSATSVNLGILTADL,2.41
20,SFMPMVIKVTSATSVNLGILTADL,2.94
21,SFMPCVIKVTSATSVNLGILTADL,3.74
22,SFMPYVIKVTSATSVNLGILTADL,3.46

# Variants of: B2
# Test: as above
# Details: c terminus: native
row,Variant,protein stability index
1,WISGGPRISYPLLHEWALREGEE,2.14
2,FISGGPRISYPLLHEWALREGEE,1.67
3,QISGGPRISYPLLHEWALREGEE,2.35
4,DISGGPRISYPLLHEWALREGEE,3.3
5,NISGGPRISYPLLHEWALREGEE,2.62
